Test results: publication PMC8424379 (2021)

Target: Raf2 fused to Gal4 DNA-binding domain (UniProt O74560)
Assay: yeast two-hybrid (β-galactosidase)
Details: Ccq1 fused to Gal4 activation domain, read off a plot

Chain of Ccq1_(496–583), Raf2-binding motif of Ccq1, fused to Gal4 activation domain (Q10432 496-583, stated change not applied): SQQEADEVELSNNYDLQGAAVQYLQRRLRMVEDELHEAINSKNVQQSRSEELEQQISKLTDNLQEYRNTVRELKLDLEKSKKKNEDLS
Chain of Raf2 fused to Gal4 DNA-binding domain (O74560 whole entry, the tested form may be a part): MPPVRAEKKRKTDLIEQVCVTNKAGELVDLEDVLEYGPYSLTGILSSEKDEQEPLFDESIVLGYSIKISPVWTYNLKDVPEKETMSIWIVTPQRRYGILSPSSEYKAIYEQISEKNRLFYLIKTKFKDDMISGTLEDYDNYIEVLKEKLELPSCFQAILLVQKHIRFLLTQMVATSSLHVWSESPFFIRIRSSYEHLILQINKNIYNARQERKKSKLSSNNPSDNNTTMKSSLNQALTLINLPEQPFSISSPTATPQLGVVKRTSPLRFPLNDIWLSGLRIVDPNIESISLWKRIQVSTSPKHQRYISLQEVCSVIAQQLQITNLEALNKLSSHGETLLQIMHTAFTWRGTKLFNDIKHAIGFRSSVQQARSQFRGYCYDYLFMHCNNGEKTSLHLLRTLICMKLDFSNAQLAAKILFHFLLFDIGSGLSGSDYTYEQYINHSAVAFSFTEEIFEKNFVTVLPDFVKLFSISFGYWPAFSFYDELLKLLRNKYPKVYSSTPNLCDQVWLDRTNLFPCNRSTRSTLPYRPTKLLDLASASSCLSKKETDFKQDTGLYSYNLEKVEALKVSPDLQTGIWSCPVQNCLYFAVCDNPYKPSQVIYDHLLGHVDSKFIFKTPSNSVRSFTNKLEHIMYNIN

## Ccq1_(496–583), Raf2-binding motif of Ccq1, fused to Gal4 activation domain (from UniProt Q10432) V570R
  response: 80
